Consider 17 molecules from paper PMC7367173.

Numbering of substitutions follows the chain as printed.

One data set has as its target T1, ProQ full-length (Escherichia coli, UniProt P45577 1-232).
T1 sequence: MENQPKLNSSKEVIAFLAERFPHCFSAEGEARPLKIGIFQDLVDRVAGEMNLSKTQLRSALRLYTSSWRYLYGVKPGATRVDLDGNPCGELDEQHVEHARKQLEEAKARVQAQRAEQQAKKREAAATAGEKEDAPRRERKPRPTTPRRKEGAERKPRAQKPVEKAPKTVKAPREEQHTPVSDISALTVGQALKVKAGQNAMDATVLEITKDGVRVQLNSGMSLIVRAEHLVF
The data set is described as follows: EMSA.

The target in a further data set is T2, ProQ NTD (FinO domain) (Escherichia coli, UniProt P45577 1-130).
T2 sequence: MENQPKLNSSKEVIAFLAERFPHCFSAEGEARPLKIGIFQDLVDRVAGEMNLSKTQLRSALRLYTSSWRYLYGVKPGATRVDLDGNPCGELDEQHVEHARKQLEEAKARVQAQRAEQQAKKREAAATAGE
The data set is described as follows: EMSA.

The next data set addresses Hfq (Escherichia coli, UniProt P0A6X3 1-102). The data set is described as follows: filter binding.

Chain of Hfq (P0A6X3 whole entry): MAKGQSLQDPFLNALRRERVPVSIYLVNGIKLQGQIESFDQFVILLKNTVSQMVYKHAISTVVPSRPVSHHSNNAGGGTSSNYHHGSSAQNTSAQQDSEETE

B1: lpp-5'-mut (structured_RNA)
RNA: GCUACAUGGAGAUUAACUCAAUCUAGAGGGUAUUAAUAAUGAAAGCUACUAAACUGGUACUGGGCGCGGUAAUCCCGCGCCCUUUU
In general, Kd refers to the concentration at which binding is half-saturated. A low value points to tighter binding. B1: binding in the data set with ProQ full-length was put at a Kd of 3 ± 1.3 nM.

B2: malM-3'-4U (structured_RNA)
RNA: GCUUUAUCAGCAGUGUAAAAGGCAAGGGGUAAUUACGCCCCACAGUGCUGAUUUUGCAACAACUGGUGCGUCUCCUGGCGCACCUUUU
In the case of B2, the Kd with ProQ NTD (FinO domain) amounted to 27 ± 11 nM.

B3: hupA-5'-mut (structured_RNA)
RNA: GCGAAAAAAAGUGGCUAUCGGUGCGUGUAUGCAGGAGAGUGCUAUUCUGGCAUUUCCGUCGCACUCGAUGCUUAGCAAGCGAUAAACACAUCGUAAGGAUAACUUACGUUUU
In the case of B3, the Kd in the data set with ProQ NTD (FinO domain) stood at 16 ± 4.7 nM; with ProQ full-length, 14 ± 8 nM.

B4: malM-3'-AA (structured_RNA)
RNA: GCUUUAUCAGCAGUGUAAAAGGCAAGGGGUAAUUACGCCCCACAGUGCUGAUUUUGCAACAACUGGUAAGUCUCCUGGCAAACCUUUUUUU
Regarding B4, binding with ProQ NTD (FinO domain) was put at a Kd of 6.6 ± 1.4 nM.

B5: malM-3'-AtoU (structured_RNA)
RNA: B4 RNA with A58U, A59U, A61U, A62U, A68G, A69C, A80G, A81C
As for B5, in the data set with ProQ NTD (FinO domain), binding was characterised by a dissociation constant (Kd) of 5 ± 1.8 nM.

B6: malM-3' (structured_RNA)
RNA: B4 RNA with A68G, A69C, A80G, A81C
Take B6: the values for the Kd with ProQ NTD (FinO domain), with ProQ full-length and with Hfq were 12 ± 4.8 nM, 12 ± 5.3 nM and 22 ± 7 nM, respectively.

B7: malM-3'-UU (structured_RNA)
RNA: B4 RNA with A68U, A69U, A80U, A81U
As to B7, binding with ProQ NTD (FinO domain) was put at a Kd of 8.7 ± 2.1 nM.

B8: cspE-3' (structured_RNA)
RNA: GUAAGAUACGUCAGCAAGAAUUCAAAACCCGCUUAAUCAGCGGGUUUUUUUU
As for B8, the results for the Kd in the data set with ProQ NTD (FinO domain) and in the data set with ProQ full-length were 4.5 ± 1.5 nM and 13 ± 4.5 nM, respectively.

B9: cspE-3'-AtoU (structured_RNA)
RNA: B8 RNA with A24U, A25U, A26U, A27U
Take B9: the Kd with ProQ NTD (FinO domain) amounted to 100 ± 51 nM; in the data set with Hfq, 1.7 ± 0.88 nM.

B10: infA-3'-AtoU (structured_RNA)
RNA: GUCGCUGAUUGUUUUACCGCCUGAUGGGCGAAGAGAAAGAACGAGUUUUUGGUCGGUUUAACCGGCCUUUUUAU
Regarding B10, the dissociation constant Kd turned out to be 32 ± 13 nM with ProQ NTD (FinO domain) and 1.2 ± 0.55 nM with Hfq.

B11: malM-3'-bulge (structured_RNA)
RNA: GCUUUAUCAGCAGUGUAAAAGGCAAGGGGUAAUUACGCCCCACAGUGCUGAUUUUGCAACAACUGGUGAAACGUCUCCUGGCGCACCUUUUUUU
In turn, B11 gave a dissociation constant (Kd) with ProQ NTD (FinO domain) of 9 ± 2.5 nM.

B12: hupB-3'-RtoU (structured_RNA)
RNA: GGUAAACUAAGCGUUGUCCCCAGUGGGGAUGUGACGAAGUUCUUUGGCGCAUCUACUGAUGUGCCUUUUUU
For the molecule B12, the Kd with ProQ NTD (FinO domain) was 29 ± 7.2 nM; with Hfq, 1.9 ± 0.75 nM.

B13: malM-3'-6U (structured_RNA)
RNA: GCUUUAUCAGCAGUGUAAAAGGCAAGGGGUAAUUACGCCCCACAGUGCUGAUUUUGCAACAACUGGUGCGUCUCCUGGCGCACCUUUUUU
B13 had a Kd with ProQ NTD (FinO domain) of 7.8 ± 1.2 nM.

B14: cspE81-3' (structured_RNA)
RNA: GGCCCUUCUGCUGCAAACGUAAUCGCUCUGUAAGAUACGUCAGCAAGAAUUCAAAACCCGCUUAAUCAGCGGGUUUUUUUU
For B14, the Kd in the data set with ProQ NTD (FinO domain) came to 7.6 ± 4.5 nM; with Hfq, 47 ± 11 nM.

B15: cspE81-3'-AtoU (structured_RNA)
RNA: B14 RNA with A53U, A54U, A55U, A56U
In the data set with ProQ NTD (FinO domain), B15 returned a Kd of 17 ± 4.6 nM.

B16: gapA-3'-AtoU (structured_RNA)
RNA: GGACCUGAUCGCUCACAUCUCCAAAUAAGUUGAGAUGACACUGUGAUCUUUUUUGAGCGACUUCGGUCGCUCUUUUUUUU
With B16, binding in the data set with ProQ NTD (FinO domain) was characterised by a dissociation constant (Kd) of 18 nM.

B17: malM-3'-5U (structured_RNA)
RNA: GCUUUAUCAGCAGUGUAAAAGGCAAGGGGUAAUUACGCCCCACAGUGCUGAUUUUGCAACAACUGGUGCGUCUCCUGGCGCACCUUUUU
In the data set with ProQ NTD (FinO domain), B17 displayed a Kd of 9.7 ± 1.5 nM.
